The data set concerns Caco-2 cells. Briefly: Transport of insulin across Caco-2 cell monolayers (Transwell, apical to basal, RIA). It is filed as in vitro ADME, human. Conditions: initial transport experiments, data not shown. The source says: The Caco-2 cell line has been established as the primary screening model for oral peptide delivery. Caco-2 cells are derived from a colon cancer and differentiate in culture to form intestinal epithelium similar to that found in the small intestine. The cells form a monolayer with many of the specific properties of the epithelial lining of the intestine: they form a brush border with normal enzymes, they form tight junctions between cells, and they acquire the barrier properties of an enterocyte sheet. When grown on permeable supports these cells can be used to screen drug microemulsion formulations.
Caco-2 colon carcinoma cells were obtained from American Type Culture Collection (Rockville, Md.) and maintained in culture in high glucose DMEM with 10% fetal calf serum, plus pen/strep, at 37° C., in 5% CO2. Cells were subcultured roughly every 5-7 days, 1:3 in T75 flasks, or when cells were 80-90% confluent, as determined by visual inspection. […]
For transport determinations, insulin transport enhancers were added to HBSS plus calcium and magnesium. […] Transport was measured by taking aliquots from the lower compartment, which was in contact with the basal surface of the cells. […] Aliquots were removed from each well and insulin levels determined by RIA and HPLC. Transport was calculated as percent transport per hour from top to bottom. […]

Turning to “^125 I labeled insulin: iodine-125 labeled insulin used in initial transport experiments”, the “Transport of labeled insulin across Caco-2 cells” value is on record as “no increase in transport”.

Source of the values: patent US5824638A, “Oral insulin delivery” (Shire Laboratories, Inc., priority 1995, dated 1998).
